Assay results as given in US20260078195A1.

Legend:
[1] = molecular target: human GPRC5D antigen (Cat #:HM05P, Kactus Biosystems) (human) (UniProt Q9NZD1); experiment: SPR (BIAcore 8K), antibody captured by anti-human Fc on CM5 chip, antigen as analyte
[2] = molecular target: human GPRC5D expressed on HEK293T cells (human) (UniProt Q9NZD1); experiment: FACS on HEK293T/human GPRC5D cells, PE goat anti-human IgG (H+L) secondary antibody, MFI
[3] = molecular target: human BCMA antigen (Cat #:BCA-H522y, ACRO) (human) (UniProt Q02223); experiment: SPR (BIAcore 8K), antibody captured by anti-human Fc on CM5 chip, antigen as analyte
Chain of human BCMA antigen (Cat #:BCA-H522y, ACRO) (human) (Q02223 1-54 limits assumed): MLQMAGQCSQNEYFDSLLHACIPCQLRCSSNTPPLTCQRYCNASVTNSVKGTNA

[4] = molecular target: human CD3D&E protein (Cat #: CT038-H2508H, Sino biological) (human) (UniProt P04234); experiment: as above
Chain of human CD3D&E protein (Cat #: CT038-H2508H, Sino biological) (human) (P04234 22-105, chain 1 of 2): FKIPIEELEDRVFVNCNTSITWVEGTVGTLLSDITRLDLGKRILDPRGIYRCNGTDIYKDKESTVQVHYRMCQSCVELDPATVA
Chain of human CD3D&E protein (Cat #: CT038-H2508H, Sino biological) (human) (P07766 23-126, chain 2 of 2, further chain): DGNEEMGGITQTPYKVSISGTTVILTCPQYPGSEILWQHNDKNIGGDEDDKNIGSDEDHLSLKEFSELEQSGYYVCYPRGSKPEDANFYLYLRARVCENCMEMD

[5] = molecular target: human CD3 complex on Jurkat cells (human) (UniProt P07766); experiment: FACS on Jurkat cells, PE goat anti-human IgG (H+L) secondary antibody, MFI
Chain of human CD3 complex on Jurkat cells (human) (P07766 23-207, chain 1 of 4): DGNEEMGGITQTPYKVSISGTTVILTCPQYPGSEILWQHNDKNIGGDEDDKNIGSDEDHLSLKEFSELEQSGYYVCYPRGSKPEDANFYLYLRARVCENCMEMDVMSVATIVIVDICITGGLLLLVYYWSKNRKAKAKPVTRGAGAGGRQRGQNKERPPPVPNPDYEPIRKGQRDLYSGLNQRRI
Chain of human CD3 complex on Jurkat cells (human) (P04234 22-171, chain 2 of 4, further chain): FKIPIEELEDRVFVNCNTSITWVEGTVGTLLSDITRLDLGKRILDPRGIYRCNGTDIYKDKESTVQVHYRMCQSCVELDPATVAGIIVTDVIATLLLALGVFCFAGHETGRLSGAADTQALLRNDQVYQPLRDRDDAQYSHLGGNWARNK
Chain of human CD3 complex on Jurkat cells (human) (P09693 23-182, chain 3 of 4, further chain): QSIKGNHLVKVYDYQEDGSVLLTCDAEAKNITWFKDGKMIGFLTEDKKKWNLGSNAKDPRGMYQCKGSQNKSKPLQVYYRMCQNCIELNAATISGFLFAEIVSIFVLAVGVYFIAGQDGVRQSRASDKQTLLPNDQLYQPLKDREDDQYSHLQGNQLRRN
Chain of human CD3 complex on Jurkat cells (human) (P20963 22-164, chain 4 of 4, further chain): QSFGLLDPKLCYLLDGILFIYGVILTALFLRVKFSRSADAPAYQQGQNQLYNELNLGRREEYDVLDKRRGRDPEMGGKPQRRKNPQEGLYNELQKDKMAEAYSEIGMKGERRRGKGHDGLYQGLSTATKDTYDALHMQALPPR

[6] = molecular target: human BCMA expressed on HEK293A cells (human) (UniProt Q02223); experiment: FACS on HEK293A/human BCMA cells, PE goat anti-human IgG (H+L) secondary antibody, MFI
Chain of human BCMA expressed on HEK293A cells (human) (Q02223 whole entry): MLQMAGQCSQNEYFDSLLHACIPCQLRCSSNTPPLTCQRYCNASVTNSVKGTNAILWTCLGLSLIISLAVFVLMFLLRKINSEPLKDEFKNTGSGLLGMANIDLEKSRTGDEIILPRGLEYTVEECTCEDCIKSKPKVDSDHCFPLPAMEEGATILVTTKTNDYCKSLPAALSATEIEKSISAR

[7] = molecular target: mouse BCMA expressed on HEK293A cells (mouse) (UniProt O88472); experiment: FACS on HEK293A/mouse BCMA cells, PE goat anti-human IgG (H+L) secondary antibody, MFI
Chain of mouse BCMA expressed on HEK293A cells (mouse) (O88472 whole entry): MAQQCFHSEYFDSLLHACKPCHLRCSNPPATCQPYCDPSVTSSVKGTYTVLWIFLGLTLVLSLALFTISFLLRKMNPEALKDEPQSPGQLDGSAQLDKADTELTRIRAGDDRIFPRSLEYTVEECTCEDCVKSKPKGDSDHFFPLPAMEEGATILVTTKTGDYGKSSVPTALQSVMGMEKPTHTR

[8] = molecular target: monkey BCMA expressed on HEK293A cells (monkey); experiment: FACS on HEK293A/monkey BCMA cells, PE goat anti-human IgG (H+L) secondary antibody, MFI
Chain of monkey BCMA expressed on HEK293A cells (monkey) (Q02223 other isoform, or with tags, fused parts or gaps): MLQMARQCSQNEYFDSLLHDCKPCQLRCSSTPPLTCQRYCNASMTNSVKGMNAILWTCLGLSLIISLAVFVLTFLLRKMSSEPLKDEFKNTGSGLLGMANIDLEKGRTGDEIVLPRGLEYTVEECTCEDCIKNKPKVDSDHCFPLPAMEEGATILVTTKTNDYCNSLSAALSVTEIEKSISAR

Chain of human GPRC5D antigen (Cat #:HM05P, Kactus Biosystems) (human) (Q9NZD1 whole entry): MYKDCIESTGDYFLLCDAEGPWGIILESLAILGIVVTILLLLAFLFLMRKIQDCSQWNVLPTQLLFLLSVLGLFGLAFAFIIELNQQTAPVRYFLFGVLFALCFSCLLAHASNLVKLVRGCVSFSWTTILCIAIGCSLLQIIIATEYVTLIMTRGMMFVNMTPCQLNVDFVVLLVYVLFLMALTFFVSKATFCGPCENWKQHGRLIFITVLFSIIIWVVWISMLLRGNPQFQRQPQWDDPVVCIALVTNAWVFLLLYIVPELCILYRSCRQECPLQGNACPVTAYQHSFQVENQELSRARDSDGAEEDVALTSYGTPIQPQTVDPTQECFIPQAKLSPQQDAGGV
Chain of human GPRC5D expressed on HEK293T cells (human) (Q9NZD1 whole entry): as above

| Substance | Kd [1] | EC50 (read off the curve) [2] | Kd [3] | koff [3] | kon [3] | Kd [4] | koff [4] | kon [4] | EC50 (read off the curve) [5] | EC50 (read off the curve) [6] | EC50 (read off the curve) [7] | EC50 (read off the curve) [8] |
| --- | --- | --- | --- | --- | --- | --- | --- | --- | --- | --- | --- | --- |
| JNJ-64407564 (bi-specific GPRC5D×CD3 antibody) (bispecific antibody) | 4.21 nM | 0.1 µg/mL | – | – | – | – | – | – | – | – | – | – |
| EM801 (bi-specific BCMA×CD3 antibody) (bispecific antibody) | – | – | 0.996 nM | 0.00227 s⁻¹ | 2.28e+06 M⁻¹ s⁻¹ | 41 nM | 0.00757 s⁻¹ | 185000 M⁻¹ s⁻¹ | 0.7 µg/mL | 0.07 µg/mL | 0.2 µg/mL | 0.1 µg/mL |
